For three molecules, IC50, pseudovirus neutralization and IC80, pseudovirus neutralization results are on record in patent US20240109955A1.

Assay in all cases: cell-based or functional assay
Experiment [1] concerns the target SARS-CoV-2 Omicron variant XBB spike protein (SARS-CoV-2).
Experiment [2] deals with SARS-CoV-2 Omicron variant BQ.1 spike protein (SARS-CoV-2).
Experiment [3] deals with SARS-CoV-2 Omicron variant BQ.1.1 spike protein (SARS-CoV-2).
Experiment [4] concerns the target SARS-CoV-2 Delta variant spike protein (SARS-CoV-2).
The target in experiment [5] is SARS-CoV-2 Omicron variant B.1.1.529 spike protein (SARS-CoV-2).
The target in experiment [6] is SARS-CoV-2 Omicron variant BA.2.75.2 spike protein (SARS-CoV-2).
Experiment [7] concerns the target SARS-CoV-2 Omicron variant BA.4/5 spike protein (SARS-CoV-2).

B1: E8 + B8 (protein)
VH 1: QVTLRESGPALVKPTQTLTLTCTFSGFSLSTRGVCVSWIRQPPGKALEWLAFIDWDDDKYYNTSLKTRLTISKDTSKNQVVLTMTNVHPVDTATYYCARISSHHGSSWCTTFDYWGQGALVTVSA
VL 1: DTVMTQSPLSLPVTPGEPASISCRSSQSLLNSNGYNYLDWYVQKPGQSPQLLIYLGSNRASGVPDRFSGSGSGTDFTLKISRVEAEDVGVYYCMQPLQTPLFTFGPGTKVEIK
VH 2: EVQLVESGGALIQPGGSLRLSCAASGIIVSANYMSWVRQAPGKGLEWVSVIYSGGSTFYADSVKGRFTISRDNSKNTLYLEMNSLRAEDTAVYYCARDAPILGVSDWGQGTLVTVSS
VL 2: EIVMTQSPAILSVSPGERATLSCRASQSVAINLAWYQQKPGQAPRLLIYAASSRATGIPGRFSGSGSETNFTLTISSLQSGDFAVYYCQQYITWPPSYTFGQGTKLEIK
Consider B1, for which the figures for the IC50, pseudovirus neutralization in experiment [1], in experiment [2] and in experiment [3] were 0.00996 µg/mL, 0.011 µg/mL and 0.00955 µg/mL, respectively. Moreover, the values for the IC80, pseudovirus neutralization in experiment [1], in experiment [2] and in experiment [3] were 0.0181 µg/mL, 0.0305 µg/mL and 0.0132 µg/mL, respectively.

B2: MX1041 (bispecific antibody)
chain: QTVVTQEPSFSVSPGGTVTLTCGLSSGSVSTAYFPSWYQQTPGQAPRTLIYGTNTRSSGVPDRFSGSILGNKAALTITGAQADDESDYYCVLYMGRGIVVFGGGTKLTVLGGSSGEIVLTQSPGTLSLSPGETATLSCRASQSFSSDLAWYQQKPGQAPRLLIYGASSRATGIPDRFSGSGSGTDFTLTISRLEPADFAVYYCQQYGSSPPVTFGGGTKVEIKGGGGSGGSGSGGGGSASGSGEVQLVESGGGLIQPGGSLRLSCAASGVIVSYNYMNWVRQAPGKGLEWVSVIYSGGSTFYADSVRGRFTISRDNSKNTLYLQMNSLRAEDTAVYYCARDLGPAGAFDIWGLGTMVTVSSGGSSGQVQLVESGGGVVQPGRSLRLSCAASGFTLSSYGMHWVRQAPGKGLEWVAVISYDGSNKYYVDSVKGRFTISRDNSKNTLYLQMNSLRAEDTAVYYCRWAYWELLPDYYYGMDVWGQGTTVTVSSASGGSGDKTHTCPPCPAPELLGGPSVFLFPPKPKDTLMISRTPEVTCVVVDVSHEDPEVKFNWYVDGVEVHNAKTKPREEQYNSYVVSVLTVLHQDWLNGKEYKCKVSNKALPAPIEKTISKAKGQPREPQVYTLPPSRDELTKNQVSLTCLVKGFYPSDIAVEWESNGQPENNYKTTPPVLDSDGSFFKKLTVDKSRWQQGNVFSCSVLHEALHSHYTQKSLSLSPG
On to B2, for which the IC50, pseudovirus neutralization amounted to 0.0291 µg/mL in experiment [4] and 0.00414 µg/mL in experiment [5]. Besides, the IC80, pseudovirus neutralization in experiment [4] was 0.0485 µg/mL; in experiment [5], 0.00881 µg/mL.

B3: MX1028 (bispecific antibody)
chain 1: EIVMTQSPAILSVSPGERATLSCRASQSVAINLAWYQQKPGQAPRLLIYAASSRATGIPGRFSGSGSETNFTLTISSLQSGDFAVYYCQQYITWPPSYTFGQGTKLEIKGGSSGDTVMTQSPLSLPVTPGEPASISCRSSQSLLNSNGYNYLDWYVQKPGQSPQLLIYLGSNRASGVPDRFSGSGSGTDFTLKISRVEAEDVGVYYCMQPLQTPLFTFGPGTKVEIKGGGGSGGSGSGGGGSASGSGQVTLRESGPALVKPTQTLTLTCTFSGFSLSTRGVCVSWIRQPPGKALEWLAFIDWDDDKYYNTSLKTRLTISKDTSKNQVVLTMTNVHPVDTATYYCARISSHHGSSWCTTFDYWGQGALVTVSAGGSSGEVQLVESGGALIQPGGSLRLSCAASGIIVSANYMSWVRQAPGKGLEWVSVIYSGGSTFYADSVKGRFTISRDNSKNTLYLEMNSLRAEDTAVYYCARDAPILGVSDWGQGTLVTVSSASGGSGDKTHTCPPCPAPELLGGPSVFLFPPKPKDTLMISRTPEVTCVVVDVSHEDPEVKFNWYVDGVEVHNAKTKPREEQYNSYVVSVLTVLHQDWLNGKEYKCKVSNKALPAPIEKTISKAKGQPREPQVYTLPPCRDELTKNQVSLWCLVKGFYPSDIAVEWESNGQPENNYKTTPPVLDSDGSFFKKLTVDKSRWQQGNVFSCSVLHEALHSHYTQKSLSLSPG
chain 2: DTVMTQSPLSLPVTPGEPASISCRSSQSLLNSNGYNYLDWYVQKPGQSPQLLIYLGSNRASGVPDRFSGSGSGTDFTLKISRVEAEDVGVYYCMQPLQTPLFTFGPGTKVEIKGGSSGEIVMTQSPAILSVSPGERATLSCRASQSVAINLAWYQQKPGQAPRLLIYAASSRATGIPGRFSGSGSETNFTLTISSLQSGDFAVYYCQQYITWPPSYTFGQGTKLEIKGGGGSGGSGSGGGGSASGSGEVQLVESGGALIQPGGSLRLSCAASGIIVSANYMSWVRQAPGKGLEWVSVIYSGGSTFYADSVKGRFTISRDNSKNTLYLEMNSLRAEDTAVYYCARDAPILGVSDWGQGTLVTVSSGGSSGQVTLRESGPALVKPTQTLTLTCTFSGFSLSTRGVCVSWIRQPPGKALEWLAFIDWDDDKYYNTSLKTRLTISKDTSKNQVVLTMTNVHPVDTATYYCARISSHHGSSWCTTFDYWGQGALVTVSAASGGSGDKTHTCPPCPAPELLGGPSVFLFPPKPKDTLMISRTPEVTCVVVDVSHEDPEVKFNWYVDGVEVHNAKTKPREEQYNSYVVSVLTVLHQDWLNGKEYKCKVSNKALPAPIEKTISKAKGQPREPQVCTLPPSRDELTKNQVSLSCAVKGFYPSDIAVEWESNGQPENNYKTTPPVLDSDGSFFLVSKLTVDKSRWQQGNVFSCSVLHEALHSHYTQKSLSLSPG
Take B3: the IC50, pseudovirus neutralization in experiment [6] was found to be 0.00243 µg/mL; in experiment [1], 0.00677 µg/mL; in experiment [2], 0.0105 µg/mL; in experiment [7], 0.00181 µg/mL; in experiment [3] it was 0.0042 µg/mL. Also, the IC80, pseudovirus neutralization in experiment [6] came out at 0.0074 µg/mL; in experiment [1] it was 0.0161 µg/mL; in experiment [2], 0.0255 µg/mL; in experiment [7], 0.00373 µg/mL; in experiment [3] it was 0.0144 µg/mL.
